From patent publication US20120201835A1 (MERCK, published 2012) come the findings set out here.

Test [1] concerns the target Rhesus monkey Dkk-1 (Rhesus monkey). Put plainly: cell-based or functional assay.
Test [2] concerns the target T1, Mouse Dkk-1 (mouse, UniProt O54908 32-272).
T1 construct: Recombinant; also called MsDkk-1; murine Dkk-1
T1 sequence (looked up): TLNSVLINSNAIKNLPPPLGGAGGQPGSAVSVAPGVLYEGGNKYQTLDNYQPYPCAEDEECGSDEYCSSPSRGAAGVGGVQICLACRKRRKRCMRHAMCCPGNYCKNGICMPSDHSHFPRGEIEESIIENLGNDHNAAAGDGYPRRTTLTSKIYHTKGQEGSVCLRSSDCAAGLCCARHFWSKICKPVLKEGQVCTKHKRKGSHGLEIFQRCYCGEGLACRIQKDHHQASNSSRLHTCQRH
Put plainly: TRF cell assay, inhibition of Eu-labeled mouse Dkk-1 binding to cells. As for the experimental part:
For the assay, the anti-Dkk-1 antibodies were added to HEK cells overexpressing LRP5 (HEK293hLrp5 cells) at final concentrations of 0.2, 0.6, 2.0, 6.0, and 20 nM. Anti-IL3 Receptor monoclonal antibody (8B4) was used as a negative control. Eu-labeled Dkk-1 (100 pM) was incubated with the cells in absence or presence of the antibodies for 20 minutes. Dkk-1 bound in solution by the antibodies and thus blocked from binding to the cell surface of the HEK293hLrp5 cells was removed by 4× wash steps and Eu-labeled Dkk-1 bound to cell surface was measured by TRF signal. Eu-labeled Dkk-1 protein binding to HEK293 cells overexpressing human LRP5 or LRP6 was monitored by measuring the time-resolved fluorescence of bound ligand.

In test [3] the target is T1, Mouse Dkk-1. The test can be described thus: phage ELISA (+), scFv-phage on mouse Dkk-1.
Test [4] concerns the target Rhesus monkey Dkk-1 (Rhesus monkey). The test can be described thus: TRF cell assay: inhibition of Eu-Dkk-1 binding to HEK293 cells overexpressing LRP5 or LRP6, scFv.
The target is the same in test [5]. Put plainly: SPR, Biacore 3000, mean of several independent runs. On the technique in general: Surface plasmon resonance follows binding to a sensor surface in real time, without labels.
Test [6] deals with T2, Human Dkk-1 (human, UniProt O94907 32-266).
T2 sequence: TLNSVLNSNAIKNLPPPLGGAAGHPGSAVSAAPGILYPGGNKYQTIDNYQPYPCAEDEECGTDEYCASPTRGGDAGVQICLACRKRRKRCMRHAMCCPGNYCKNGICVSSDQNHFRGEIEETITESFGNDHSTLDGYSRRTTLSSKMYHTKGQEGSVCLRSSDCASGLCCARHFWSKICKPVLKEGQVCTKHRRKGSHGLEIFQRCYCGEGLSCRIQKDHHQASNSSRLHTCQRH
Described as above. As for the experimental part:
(§1) The affinity of the RH2-18 antibody for human Dkk-1 and Rhesus Dkk-1 was determined by measuring RH2-18 binding kinetics by surface plasmon resonance in a Biacore 3000 instrument according to manufacturer's instructions (Biacore, Inc., Piscataway, N.J.). Several independent affinity studies were performed using different RH2-18 antibody lots against human Dkk-1 and rhesus Dkk-1.

Test [7] concerns the target Rhesus monkey Dkk-1 (Rhesus monkey). The test can be described thus: dot blot of native recombinant proteins, 0.1 ng to 100 ng.
Test [8] shares this target. Put plainly: TRF cell assay, inhibition of Eu-Dkk-1 binding to HEK293hLrp5 cells.
For test [9] the target is unchanged. The test can be described thus: SPR, Biacore 3000, several independent runs with different antibody lots.
Test [10] deals with T2, Human Dkk-1. Described as above. The protocol: as §1
Test [11] has as its target Rhesus monkey Dkk-1 (Rhesus monkey). Put plainly: TRF cell assay, inhibition of Eu-Dkk-1 binding to HEK293hLrp5 cells, extended dose range.
In test [12] the target is T3, Rhesus monkey Dkk-2 (chimeric protein: N-terminal region of rhesus Dkk-1 fused to the C-terminal region of … (Rhesus monkey)).
T3 chain: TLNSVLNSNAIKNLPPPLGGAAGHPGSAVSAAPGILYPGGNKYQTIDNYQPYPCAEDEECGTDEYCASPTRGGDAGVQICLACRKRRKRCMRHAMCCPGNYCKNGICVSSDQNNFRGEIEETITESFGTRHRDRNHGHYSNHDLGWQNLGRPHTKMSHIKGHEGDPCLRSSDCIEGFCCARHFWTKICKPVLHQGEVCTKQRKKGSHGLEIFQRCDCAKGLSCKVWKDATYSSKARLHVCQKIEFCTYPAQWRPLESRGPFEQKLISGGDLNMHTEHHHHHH
Put plainly: dot blot of native recombinant protein (0 to 100 ng per spot) probed with RH2-18. The protocol: Native recombinant rhesus monkey Dkk-1, Dkk-2, and cynomolgus monkey Dkk-4 proteins (0.1 ng to 100 ng) were used. A non-related recombinant protein was loaded as a control for non-specific assay signal (HIS protein) and probed with the RH2-18 antibodies.
The Dkk-1 amino acid sequence is closely related to that of Dkk-2 and Dkk-4 with 50% and 45% identity at the amino acid-level, respectively. Cross-reactivity of RH2-18 against rhesus monkey Dkk-2 (using a chimeric protein consisting of the N-terminal region of the rhesus Dkk-1 fused to the C-terminal region of the rhesus Dkk-2 with myc and His-6 tags at the C-terminal end of the Dkk-2 C-terminal region; see SEQ ID NO:71) and cynomolgus monkey Dkk-4 (SEQ ID NO:70) was tested by dot-blot analysis using recombinant proteins. Native recombinant rhesus monkey Dkk-1, Dkk-2, and cynomolgus monkey Dkk-4 proteins (0.1 ng to 100 ng) were used. A non-related recombinant protein was loaded as a control for non-specific assay signal (HIS protein). The dot blots were probed with RH2-18. […] Selectivity of the antibody towards Dkk-1 was minimally 100-fold.

Test [13] concerns the target Rhesus monkey Dkk-1 (Rhesus monkey). The test can be described thus: TRF cell-based blocking assay: Eu-labeled rhesus Dkk-1 binding to human LRP5 on HEK293hLrp5 cells, RH2-18 titrated over an extended range; no unit is printed beside the number or on the log axis, M follows from 4.75 nM in paragraph 132.

B1: RH1-10 antibody (antibody, human IgG2, lambda, V domains shown)
VH: QVQLLQSAAEVKKPGESLKISCKGSGYDFPGYYLHWVRQAPGQGLEWMGWINANSGATNYAQNFQGRVTMTRDTSISAAYMELSSLRSDDTAVYYCTREDHWGRGTTVTVSS
VL: QSVLTQPPSASGAPGQRVTISCTGSSSNIGAGYDVHWYQQLPGAAPKLLIYGNSNRPSGVPDRFSGSKSGTSASLAITGLQAEDEADYYCQSYDSSLSGYVFGTGTKVTVLG
notes: IgG converted from the scFv, IgG2M4 heavy chain constant region
B1: in test [1], the pTOPflash/Lef-1 luciferase reporter in HEK293hLrp5 cells, Wnt3A plus 50 nM rhesus Dkk-1 was greater than 30 nM. Moreover, the binding result with Mouse Dkk-1 [2] is “binds”.

B2: RH1-10 scFv (phage clone) (scFv, V domains shown)
VH: QVQLLQSAAEVKKPGESLKISCKGSGYDFPGYYLHWVRQAPGQGLEWMGWINANSGATNYAQNFQGRVTMTRDTSISAAYMELSSLRSDDTAVYYCTREDHWGRGTTVTVSS
VL: QSVLTQPPSASGAPGQRVTISCTGSSSNIGAGYDVHWYQQLPGAAPKLLIYGNSNRPSGVPDRFSGSKSGTSASLAITGLQAEDEADYYCQSYDSSLSGYVFGTGTKVTVLG
notes: Single chain Fv from the CAT phage display library (BMV)
For B2, in the test with Mouse Dkk-1 [3], the binding result is “binds”. This molecule also had a % inhibition of Dkk-1 in [4] of 89%.

B3: RH2-18 antibody (antibody, human IgG2, lambda, V domains shown)
VH: EVQLVQSGAEVKKPGASVKVSCKASGYTFTDYYIHWVRQAPGQGLEWMGWIHSNSGATTYAQKFQARVTMSRDTSSSTAYMELSRLESDDTAMYFCSREDYWGQGTLVTVSS
VL: QSVLTQPPSVSGAPGQRVTISCTGSSSNIGAGYDVHWYQQLPGTAPKLLIYGYSNRPSGVPDRFSGSKSGASASLAITGLRPDDEADYYCQSYDNSLSSYVFGGGTQLTVLS
notes: also called anti-Dkk-1 antibody RH2-18
In the case of B3, the endogenous ALP activity of C3H10T1/2 cells (osteoblastic differentiation), Wnt3A plus recombinant Dkk-1, 3 days in test [1] amounted to 100 nM. In addition, the pTOPflash/Lef-1 luciferase reporter in HEK293hLrp5 cells, Wnt3A plus 50 nM rhesus Dkk-1 in test [1] was greater than 30 nM. The equilibrium dissociation constant (Kd) was 0.858 nM in test [5], 0.251 nM with Human Dkk-1 [6], 0.771 to 0.934 nM in test [9] and 0.202 to 0.269 nM in the test with Human Dkk-1 [10]. In test [7], the detection limit for binding came out at 1 ng. Further, the selectivity towards Dkk-1 (fold, against Dkk-2 and Dkk-4) in test [7] is greater than 100 fold. The inhibitory activity (concentration) in [8] was found to be 4.75 nM. The binding result in the test with Mouse Dkk-1 [2] is “binds”; in test [12], “no binding (tested: 100 ng)”. Also, in test [11], the effective dose worked out at 5 nM. The same molecule registered an EC50 in test [13] of 4.75 nM.

B4: RH2-59 scFv (phage clone) (scFv, V domains shown)
VH: EVQLVQSGAEVKKPGASVKVSCKASGYTFTDYYIHWVRQAPGQGLEWMGWIHSNSGATTYAQKFQARVTMSRDTSSSTAYMELSRLESDDTAMYFCSREDYWGRGTMVTVSS
VL: QAVLTQPSSVSGAPGQRVTISCTGSSSNIGAGYDVHWYQQLPGTAPKLLIYANTNRPSGIPDRFSGSKSGTSASLAITGLQTEDEADYYCQSYDTSPSASYVFGTGTKLTVLG
notes: Single chain Fv from the CAT phage display library (CS)
With B4, the binding result with Mouse Dkk-1 [3] was “binds”. Further, in test [4], the % inhibition of Dkk-1 was found to be 61%.

B5: RH2-80 scFv (phage clone) (scFv, V domains shown)
VH: EVQLVQSGAEVKKPGASVKVSCKASGYTFTDYYIHWVRQAPGQGLEWMGWIHSNSGATTYAQKFQARVTMSRDTSSSTAYMELSRLESDDTAMYFCSREDYWGKGTMVTVSS
VL: QAVLTQPSSVSGAPGQRVSISCTGSSSNIGAAYDVHWYQQLPGTAPRLLIYVNNNRPSGVPDRFSGSKSGTSASLVIAGLQAEDEADYYCQSYDNSLNAYVFGTGTKLTVLG
notes: as for B4
As for B5, in the test with Mouse Dkk-1 [3], the binding result is recorded as “binds”. The % inhibition of Dkk-1 in [4] was 62%.

B6: RH2-59 antibody (antibody, human IgG2, lambda, V domains shown)
VH: EVQLVQSGAEVKKPGASVKVSCKASGYTFTDYYIHWVRQAPGQGLEWMGWIHSNSGATTYAQKFQARVTMSRDTSSSTAYMELSRLESDDTAMYFCSREDYWGRGTMVTVSS
VL: QAVLTQPSSVSGAPGQRVTISCTGSSSNIGAGYDVHWYQQLPGTAPKLLIYANTNRPSGIPDRFSGSKSGTSASLAITGLQTEDEADYYCQSYDTSPSASYVFGTGTKLTVLG
notes: as for B1
Consider B6, for which, in the test with Mouse Dkk-1 [2], the binding result is listed as “binds”.

B7: RH2-18 scFv (phage clone) (scFv, V domains shown)
VH: EVQLVQSGAEVKKPGASVKVSCKASGYTFTDYYIHWVRQAPGQGLEWMGWIHSNSGATTYAQKFQARVTMSRDTSSSTAYMELSRLESDDTAMYFCSREDYWGQGTLVTV
VL: QSVLTQPPSVSGAPGQRVTISCTGSSSNIGAGYDVHWYQQLPGTAPKLLIYGYSNRPSGVPDRFSGSKSGASASLAITGLRPDDEADYYCQSYDNSLSSYVFGGGTQLTVLS
notes: as for B4
For the molecule B7, the binding result with Mouse Dkk-1 [3] is “binds”. Besides, the % inhibition of Dkk-1 in test [4] stood at 74%.

B8: RH2-80 antibody (antibody, human IgG2, lambda, V domains shown)
VH: EVQLVQSGAEVKKPGASVKVSCKASGYTFTDYYIHWVRQAPGQGLEWMGWIHSNSGATTYAQKFQARVTMSRDTSSSTAYMELSRLESDDTAMYFCSREDYWGKGTMVTVSS
VL: QAVLTQPSSVSGAPGQRVSISCTGSSSNIGAAYDVHWYQQLPGTAPRLLIYVNNNRPSGVPDRFSGSKSGTSASLVIAGLQAEDEADYYCQSYDNSLNAYVFGTGTKLTVLG
notes: as for B1
For the molecule B8, the pTOPflash/Lef-1 luciferase reporter in HEK293hLrp5 cells, Wnt3A plus 50 nM rhesus Dkk-1 in test [1] was greater than 30 nM. The binding result with Mouse Dkk-1 [2] is on record as “binds”.

One may read the Kd as the equilibrium constant for the complex coming apart. The term EC50 denotes the concentration that produces a half-maximal response.
